This note sets out measurements from the DeepSol protein solubility set.

A short description of this data set: soluble on expression in E. coli; label from the status in PepcDB or PDB records.
“MAHHHHHHMNLIHICLFIIVIKCYVNCIKKNNKHIAYDKFYKQGSNTIVGSGNGSGDLLFLNNININKNVERKKNILAHSEIGTVRNIDDINLLNHNKKNEISFTKCKQIATIGPASENFEQLEKLYLNGIDVFRLNFSHGLKSIKKYIINSIRILEKKYDTTIGILGDIQGPKIRIGEFEKNQINENDNNTFVELKEGDLFSFDLMNSLGNQNRVQLNYPELIKNAKAGQIILLDDGNLKMKILENNYDTSNIQNSYIKVQVLTGGKLYSKKGFCIPNMIMPIDVLSEKDIKDILFCINEEVDFLGYSFVQTEYDLIFLRNIINDYYESDFYNNIKRKDRINFDQNNLQMKTFDDENDFYIKEVNDYYNNYYLKNVQKYKQIYDVYKNQDLYINDNIQNHYNKNIVTNIGDDKNIIDEQHIHNNNNNNIDNIMKNYSNLYNINKDHNKIAIISKIEKPSAIKNIENIIKLSDGIMIARGDLGIETNLSNLPILQKKLINLCRIKYNKPVIVATQMMESMRFLPSPTRAEVTDVATALYDGSDCVMLSAETATGQYPILTVSTQNKIIKDVENDYYYYEYTQRKNDKLKMLDHKNNCCHENKDIQQINKYNHEYIQNNKYEQDIQNNISYFDKLIFSIRDISNNINLKSIILFSNEFNKIQKLSNLRTKAPIIVITENKYLARKLQLTWGIYPHLSKKQNLFNHDLFSLINYGCDVSKKEGFVNSPDEYSLVTFSKNINSANLLYLCQPCLTN”: the “soluble on expression in E. coli” value is “not soluble”.

For the sequence “MMIKIAVVGSKEFMENLFPIAQKLEGIEIDPYIYLHPAESSELLKCLKPCDVIFFSGALPYYMAKEIREQLRIPSTYLQQDETTVASSILSIMYHQSIQPHNISIDLVDRSFITNVFHDIGIKESPQVLDYENMLWSKDEINRVIDFHVAKYQYGEAHLALTSIHAVYDELQKIGIPSERMIDPTQSIIHGLKDAKIKAELAKSYSATVGACIISSLELRASLLEKLDVISKELRGSFKQVDEMTCILYTTRGDIESIIKTNAIDNLFASIEGTIAIGFGYGKTVKEAEQNAKIAQSFAKNYPIDRCFYILASDKDLFGPFPKEQRVQSLKNDNPELMKIAKETKLSPANLSKIIQFSQSHPSLKFTAADLSEYLQVTRRSTERLLKKLVDYGYAHICGEEMPYQQGRPRALYELNFPLFLSF”, the “soluble on expression in E. coli” value was “not soluble”.

In the case of “MSDSDAMTDPNAVSYSNAIVVLCTAPDEASAQNLAAQVLGEKLAACVTLLPGATSLYYWEGKLEQEYEVQLLFKSNTDHQQALLTYIKQHHPYQTPELLVLPVRDGDKDYLSWLNASLL”, the “soluble on expression in E. coli” value is given as “not soluble”.

With “MGQTLSEPVTKKESASCANENYLVGSSCMQGWRVDMEDAHTHLLSLPDDPKCAFFAVYDGHGGSKVSQYSGINLHKKVVAQKEFSEGNMKEAIEKGFLELDQQMRVDEETKDDVSGTTAVVVLIKEGDVYCGNAGDSRAVSSVVGEARPLSFDHKPSHETEARRIIAAGGWVEFNRVNGNLALSRALGDFAFKNCDTKPAEEQIVTAFPDVITDKLTPDHEFIVLACDGIWDVMTNQEVVDFVREKLAEKRDPQSICEELLTRCLAPDCQMGGLGCDNMTVVLVGLLHGQSPDTLFTKCARPAVFTGVNNEDGDQNQIQQDISRVINNFDGEQRVNAANQEEEEDDNEPAPANFQV”, the “soluble on expression in E. coli” value is reported as “soluble”.

Turning to “MSLTIKNSLGQSHDYIKMFVKEGDTVVDATCGNGNDTAFLASLVGENGRVFGFDIQDKAIANTTKKLTDLNLIDRVTLIKDGHQNMDKYIDCPVKAVMFNLGYLPSGDHSISTRPETTIQALSKAMELLVTGGIITVVIYYGGDTGFEEKEKVLEFLKGVDQKKFIVQRTDFINQANCPPILVCIEKISEGHHHHHH”, the “soluble on expression in E. coli” value is reported as “soluble”.

As to “MSLYQLEDDSLMLHNDLYQINMAESYWNDNIHEKMAVFDLYFRKMPFNSGYAVFNGLKRVIDFIEHFGFSESDLEYLKSIGYKDDFLSYLKDLKFTGSIRSMQEGELCFGNEPLLRVEAPLIQAQLIETILLNIVNFHTLITTKASRIRQIASNDKLMEFGTRRAQEIDAALWGARAAYIGGFDSTSNVRAGKLFGIPVSGTHAHAFVQTYGDEYVAFKKYAERHKNCVFLVDTFHTLKSGVPNAIKVAKELGDKINFVGIRLDSGDIAYLSKEARRMLDEAGFTETKIIASNDLDEETITSLKAQGAKVDSWGVGTKLITGYDQPALGAVYKLVAIENEEGSYSDRIKLSNNAEKVTTPGKKNVYRIINKKTGKAEGDYITLENENPYDEQPLKLFHPVHTYKMKFIKSFEAIDLHHNIYENGKLVYQMPTEDESREYLAQGLQSIWDENKRFLNPQEYPVDLSKACWDNKHKRIFEVAEHVKEMEEDNEEGHHHHHH”, the “soluble on expression in E. coli” value was “soluble”.

Turning to “MGSDKIHHHHHHMIQMFINLLETIPSLGRHSFQVAFLSAQIAEKMNLDPNVSFLSGLIHDLGLILPYEGKTLLDEIDDTFVIVRDTPGKPLHLHSILGSFITDYVEKLKPISPIVLKHHFPASYLDKTEENLISNIVFISDQVSRYTMINLDVSPRDILIALEDMKSFFFPEVFEACREVLNTEFVQWQLENILAGYDVTDLLDHHVRNCPDCDKKDLIQIGKIVSFIVDTKSEFTTSHTWRVAVFSEKMAEKAGRNSEDLFIAGLYHDIGKISVSYKILEKPAKLSDEEYAIMKKHVYFSYLILLPYKDENWFLPAVRHHERLDGYGYPFRLKGEEMTLEDKIIQVADVFSALLEERPYRPANTVEKALSMVREEVKKKKLSQEAFELLESSLEDFDLSSIEVGREIRKEIRTFVNRVVEKFGDYVL”, the “soluble on expression in E. coli” value is “not soluble”.

Take “QRKNNNKRWYFTREQLENSPSRRFGLDPDKELSYRQQAANLLQDMGQRLNVSQLTINTAIVYMHRFYMIQSFTRFHRNSVAPAALFLAAKVEEQPKKLEHVIKVAHTCLHPQESLPDTRSEAYLQQVQDLVILESIILQTLGFELTIDHPHTHVVKCTQLVRASKDLAQTSYFMATNSLHLTTFSLQYTPPVVACVCIHLACKWSNWEIPVSTDGKHWWEYVDATVTLELLDELTHEFLQILEKTPNRLKRIWNWRACQAAKKT”: the “soluble on expression in E. coli” value is “soluble”.

Turning to “MKNKLLVLSLGALCVSQIWESNRASAVVSGEKNPYVSESLKLTNNKNKSRTVEEYKKSLDDLIWSFPNLDNERFDNPEYKEAMKKYQQRFMAEDEALKKFFSEEKKIKNGNTDNLDYLGLSHERYESVFNTLKKQSEEFLKEIEDIKKDNPELKDFNEEEQLKCDLELNKLENQILMLGKTFYQNYRDDVESLYSKLDLIMGYKDEERANKKAVNKRMLENKKEDLETIIDEFFSDIDKTRPNNIPVLEDEKQEEKNHKNMAQLKSDTEAAKSDESKRSKRSKRSLNTQNHKPASQEVSEQQKAEYDKRAEERKARFLDNQKIKKTPVVSLEYDFEHKQRIDNENDKKLVVSAPTKKPTSPTTYTETTTQVPMPTVERQTQQQIIYNAPKQLAGLNGESHDFTTTHQSPTTSNHTHNNVVEFEETSALPGRKSGSLVGISQIDSSHLTEREKRVIKREHVREAQKLVDNYKDTHSYKDRINAQQKVNTLSEGHQKRFNKQINKVYNGK”, the “soluble on expression in E. coli” value was “not soluble”.

On to “MSLDFVIEMLGIRKEFSGFVANDNITLQLKQGEIHALLGENGAGKSTLMNVLFGLYEPDGGEIRVRGTKENINSPNKANELGIGMVHQHFMLVDKFTVAENIILGKEPSKLGVIEKKKAIEEIKEISDRYGLRVDPNAVVRDISIGMQQRVEILKTLYRGADILIFDEPTAVLTPQEIKELIQIMRSLIKEGKSIILITHKLKEIMDVCDRVTVIRRGKGMGTVNVPETTPQDLANLMVGREVVFTTEKIDAKPGKDVLEVKDLVVKESRGVESVRGLNLTVRAGEIVGIAGVDGNGQSELISAIAGLSKVTSGSILLNGEHIENKKPRKITEAGLGHIPEDRHKHGLVLEMSLGENIALQTYYKKPISSKGFLNHKAMYDFARELIEEYDVRASSEYVAAKSLSGGNQQKAIIAREIHRNPDFLIAAQPTRGLDVGAIEFIHRRLIEQRDNGKAVLLMSFELDEIMNVSDRIAVIYEGKIVAIVDPKETTEQELGLMMAGSSKQEAEMGEKEGHHHHHH”, for which the “soluble on expression in E. coli” value is on record as “not soluble”.

As to “GSVTVPEVIASEVISYAQEENLLRKYGTVIRTAGDVKYPILVKKAEANVNKKERTTDITETAIQFDEILLDPAEFDALATVTKKLLKMSGVPVEDIVVEELKKAYVRKEINYMFNGDDAGNENPGALAKKAVAFEKPVDLTAAGAGQKLYDALIEFKNTPVTEVMKKGRFIINRAALTAIEKMKTDDGFPLLRPFTQAEGGIGYQLVGYPVDWTDAADKKGEPDTPVLYFGDFSAFKIQEVIGALEIQKLVEKFSGKNQVGFQIYNLLDGQLVYSPFEPAVYRYEITKPVGG”, the “soluble on expression in E. coli” value was “not soluble”.

With “MVLTEDFGYPLSRIKLEYEVTFGREKKRADIVIFDKQQTDSPYIIIEVKKPKLKDGKEQLKSYCNATGAPIGVWSNGKSISYYHRKDPNYFEDISNIPRADQKLSDILSERWTIADLIEKDKLISERKSLKDLILEMEDEVLAGAGVDVFEEVFKLIFTKLFDEMESGRNNERNLEFRNYGDTETELKERIQNLFDKARDKWEGVFSPDAKIQLTPSHLSVCVASLQDVKLFNSNLDVVDEAFEYLINKSSKGEKGQYFTPRYVIDMCVKMLNPTANEKMIDTASGSCGFPVHTIFHVWENILKEKGLERSHLFTLEQKPAECTDYVNDNVFAIDFDEKAVRVARTLNLIAGDGQTNVLHLNTLDYERWEQNLDSEDWQDTYFEGWKKLKKLRTRKDSYRDFTFDIVMANPPFAGEVKESRILAKYDMSRSMSLEKVKIAPKGATIVEGEPTFSEALANTGETIYQMSDGTYRKTKLKQAGNMSRDILFVERNLDFLKPGGRMAIVLPQGRFNNSSDKALREYIADRCRILAVVGLHGNVFKPHTGTKTSVLFVQKWDEELCPRVEDYNIFFATMQEPSKDNSGDKIYRSTTNEEGENVPLLDTHGHLIVKHDLFNHDGLTEDGIAEAFAEFAKKERLSFFADAPLTK”, the “soluble on expression in E. coli” value is “not soluble”.

As for “MGSDKIHHHHHHAGKQNEVELVAEKQLAFPLDEQTYYLSKSMFQFEENGKEYLHFENTQKSLYDIVIFDIENQQIAKRIPLHKTGPNGLPAVFGSRPSPDSQYILVAQNNISRLSSINSQGEIIRNYNFQTPEGRFTPLSFGSYYNAPAFIKDSCIFLRQEILKPDMKKEDWPRTHMFASQDLRTGEVKWIPIFYPPIFKEEYDNIAGGYGFSYDYNYKESRLVCGFFGYDSLMVTDDLKHIRWYNAKSRYLKSMKPKLGNSMEGINAIIKLNENPRYWHIMYDKYRNVYYRFAEMPYKLAPNESPYETPKGKEFSVIVLNADFEIIGETKFPGKKYFYKMSFVGREGLYISENNLENPQFDENKLVFTCFKIKNASPNK”, the “soluble on expression in E. coli” value was “not soluble”.

Take “MDATDDIRAGELASDWSGSPDAGVVFIGRIHTPWNRLKECPRHGRADGPVCRIEVFETWLPALAGIDDGTLLEVFYWLHRSRRDLLLQCPRNDGDARGTFSIRSPLRPNPIGTSIARVDRRDGANLFIRGLDCLDGTPLVDLKPDRAEFMPLAPPKPGDFQVGEPRR”: the “soluble on expression in E. coli” value is given as “soluble”.

As for “RGIPQITGPTTVNGLERGSLTVQCVYRSGWETYLKWWCRGAIWRDCKILVKTSGSEQEVKRDRVSIKDNQKNRTFTVTMEDLMKTDADTYWCGIEKTGNDLGVTVQVTIDPAPVTQEETSSSPT”, the “soluble on expression in E. coli” value is “soluble”.

As for “MVKCMKPGKAVILLQGRYTGKKAVIVKSFDDGTVEKKYGHCLVAGLKKYPSKVIRKDSAKKTAKKSRVKCFFKVINYQHVMPTRYTLDLDLKNVVSADAISSKDKKVTALKEAKAKFEERFKTGKNRWFFTKLRF”, the “soluble on expression in E. coli” value is “not soluble”.

As for “MKAVGLVVEYNPFHNGHLYHAQTAKLQTGCDTAVAVMSGHFLQRGEPAVVSKWARTKMALQSGVDLVIELPYLYAVQKADIFARGSVSILNELECEALFFGSENGDIKPFLETAQLIDEHKHILNDRIKEELKKGASYPAAAAIAFSSILHTESALDLSKPNNILGYQYVTSILTGGYPMKPYTTARISSDYHDADLPEGENHIASATSIRKAMIGQNLEACLRFLPAASARELAAYRKSFGLWHTPESYFSYLKYSLSTVTARELQQVYEVEEGLEHRIIRSIRKSSSYQEFMELLKTKRYTWTRLQRMNTHILTRTKKQDMQKLLDNDKAPYIRLLGMTKKGQAYLSEKKKALSVPLVSKLSSFSHPALDLDVKASRIYSLPIEEPLRTEFDLQEYG”, the “soluble on expression in E. coli” value is “not soluble”.
